Test results published in the domain aggregation screens of Martell et al. (2025).

Assay: soluble fraction after stress (log2 fold change); higher = more stays soluble; pooled small domains, quantitative proteomics
Settings: stress: 75 degC
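Note: 20 min heating vs room temperature control held 20 min.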

Sequence | soluble fraction (log2)
HMLGSQQAYTDALRLTGLPVDIEVIESDRLPFLIPMRYSLDQHLIEVNVRYPDTRAIRVQQMVEELFHA | -0.631
HMLGVKKFGGEAVIAGNIILRQRGTKWITGSNVGIGKDHTLFAKIEGYVVFERMRGRDGQQQISIYP | 0.0286
HMLGYQALASAFRSKVEAGIWPIGEAIPSEARLSKEYGVAVGTIRQAIAELAEEGILIKRHGKSTMVSSG | -1.49
HMLHEFSGVVVSILADTGPSTLKQLHRSLISSDVKMDEKELMQILDEALSSGSVTSHRKGRYLYYSANK | -1.71
HMLHIKKGDTVIVNAGESKGQQGKVLEVLVGKERAIVEGVNMVSKHTKPNAKNPQGGIVKKEAPIHISNLQ | 0.154
HMLHPLLWAVDEPTPVTVRTRPEYVPDVVRWLMQPESQREHDGVVDLRYTVTHRAAFRSRIYVLGTRVTIP | 0.114
HMLIADADSLRKQIETVLANAPNEVAAYRGGKETLMGWFVGQIMRATGGKADPKLTREILAELLQ | -0.00264
HMLIADSDALRSQIESILNGNPNEVASFRAGKESLMGWFVGQVMRSTGGKADPKRTRELLQELLTK | -0.0249
HMLIDSEILKKTNKITIFLIYAFFSEYLINKEKKKILIGEYIKLSKDFLTIEEVKYFNHLLDDISK | -0.131
HMLIDSNNYFFYKVKPKEGFYSLQKKLGVNRSEIEKHNPSLINEVLKEGMILKIPKYLLNFDLN | -1.08
HMLILTWNYPYEYPMMMRSFLQEIGISRTFLAHIKSNGELLINGRHEIVLKTLQPGDVLTMVIPPSG | -2.13
HMLINLGPRIRKERRSKGISQSDFSKNLGISASYLNLLENGRRTLTVPLLIKIGNELNLSLKDL | -0.125
HMLISAESVKRRLEMIRHLILLGDYEDVTAQVIKLNPAANEYKLTPIIEELNGGKYQEALEKINSYLSKF | -0.839
HMLISKNLLGFTIKNTSGVTFGTLKDIMWLPSNDVYVIDNNGKEYLIPVISEIVKSINYDKGSITIFP | -0.4
HMLKASEVLPYVFTDKFFIDDLNLKQDQILGFLEYIDSKLPSQKLLQVSQQFQLIDFLINESKNYKNQ | -1.68
HMLKDININVTGLDQISNAKLINNLNLLKMNNLFFLDEKKIKKILNSNNLIEKFFIFKKYPSTLDIKVYKT | 0.177
HMLKHNLLSELSRIEGVGAVKRKALMDKFGTVENIKRASEEELSEVAGIGPTLARTIKEQMNKDE | -0.133
HMLKKRKPMSGVGVIVKGMLTGTVTGTDGSYALKARPNDELSFSFLGYKTQEVFVGSKSTIDITLVDEA | -0.111
HMLKLEEIQPNATVRGILPDALITVVNVKWFGSEALELTYKDTSGRVANQLLFRDDQPRLEIVE | -1.98
HMLKLEPYTINEINSLQELYDLGNVRALETLISIYKDKNQVYDTRFYVLDILSKYDNPLIQEALEESITN | -1.39
HMLKLPVEYLNLKYQLMHATSLDKPNNLMKLDEKLGKIIDVYYDDLPVDEQRVVDILQSKLYSY | -0.489
HMLKLYILTDGKNYVMDDPIHPGRVMYSTSPVNAKKFTFKQARALLNNKSKKLSWIRSFNMVDDSSGEKI | -1.44
HMLKREDEVIVVAGKDKGKRGTITQLVGDDRVIVAGVNMVKRHTKPNPNLGQPGGIVEREASLHISNV | 0.244

Sequence | soluble fraction (log2)
HMLKVHPRDQEENRLLLLKGERLYEESTGDTRVMIDMWLRKFEEALNSRSRENIEDARRELKEQLAELDN | -0.185
HMLLAPLRLGAAPDIKAQAPLATILARHNGEMEAKDLWQRFGGEIDAFYLQLKTEVAHGWIVEPEPA | -3.01
HMLLELINLQVKILENEELKIIGKVIDLENEKNNLLVIELLKDQKKVLVPFVKEIVPLIDIKNNFIMINPP | -0.903
HMLLFNVADIVKRAKRVLNFKTDAELAAYLGVSRPTLSNWIARNGIDFPLLLEKLKEIDYNWLLVGKGKPE | -2.74
HMLLGPDALTNRELDVLALLERRLSNKEIGALLYISPRTVKRHTINIYQKLHVNNRRAAVAQAKALGLMPD | -1.9
HMLLKIRPDLDGNEIMKLLNIAAGPNVGKAYEHLLELRLEHGPLGKERAEQELMNWWSARSQ | -0.898
HMLLNSLIDTLAAEKATVVPGTEVFKLYDTYGFPWELTEEIASERGFTIDHEGFEAAMKEQRERAREARV | -0.104
HMLLNTSQLKELYNRYDKKNSSLISIPFSAISDEPLKFYKWYAALFQIELNVKAFADVDSKQIIIYKGTK | -3.37
HMLLRSEDAIELGKSQLEDALAPYKIETLDTGTVQQLLDSLKLNSLESLYQEIGLGNRMSTIIAHRLLGE | -0.216
HMLLSFYGTYGNVKLTGKELEDLQKEFPFDYQARIDRLSAYMESSGRKYHSHFATIRSWAQDDAKKN | -2
HMLLSYDIAEYIEKYIHEHGLQPGDRLPTERELAAQLDITRVSVRQGYKRLLDQGVIRSENGYYVNPPR | -1.68
HMLLTDGLERRIDGDKNLHIRISLPMLVKGQIKLAKSGNNESTVKGIFKIESYPGSHPRDVVTEIIEG | -0.236
HMLLTHPKRVFTYELIMELVWNEDYTFYSKKAVSNHMSNLRKKLKVTPDALDYIKNIVGVGYKFEA | -1.11
HMLMKKTITHEIELLEFLKQIFPQSSTNKLRKMLSNGRIKINSEIVHKAKYKLQENDTFELLDNPT | -2.61
HMLNEIMDTINKYISDKRNNKVAQNILSAALDELNSQIRVGLKDLNPHSIEEFKENVINSPYIEFEQG | -0.0112
HMLNEWIDYIDEHIKEELTAKNLATVFGYSERHFRNVFQIYYDIKLNDYIRRRKLYFAAQELKKG | -1.27
HMLNMSVYDKQLLRAVENNPFISQRELARELHWNVDRVKYYMKKWKDKGGLRHVGSSHKGYWEVLVRIEEK | -0.891
HMLNNVDIHKLSEDLLLYKIKIDIKLKNIEDAISTIDYFSNKFPNSDLMPYVIYEKKLIDNI | -2.59
HMLNPLLLPFVEAEDFQVKLEILAAMEGKVGEEDLDILYEALDLPKMTGNIEEQIHSIKQYIEMRK | -1.18
HMLNPVEKLLLLSQLYIGRLKGSFVVKEKHHKSTILGEVRELSPEEITLKTDEGYRLIRVDDILTIQL | -4.44
HMLNSLDATQRLKLNKDGVVVFNFGKYVDQSVIDIFKKEKGYYNWMMSKDFSQQVKNIITKIYQEEIIG | -1.08
HMLNTLGADIRALRKARGLTLAELAQTLGRSVGWLSQVERDMSEPGINDLRDLARALDVSISSLFG | -1.8
HMLNWINSDVLERFNSLTKEKQKAIVADTETRLNGLSQARFKVAKSSSNERLIAEFAIEINEAIMRAAAL | -2.11

Sequence | soluble fraction (log2)
HMLPADETEARVLNVLGSEPLHVDEIRNQADLPIEKISATLAMMELKGMVRQVGGMNYVAMR | 0.0378
HMLPANGEAIYHYLASGAIKGVGPVTAQRIVDKFGEDTFDVLENNPLWLAEIKGITRKTAENIGAAFAAQF | 0.631
HMLPDAESFSYEVPYTKGDGGTYNYEGKIKAQNADAARDEIIRQAQVYFQMNPQFTPDYPSTTITSLD | 0.14
HMLPDDDMLLNILTKLLIDKQFVINSHEIFDFIIKRANRSYEEMFILVNKLDQLSLEKKRQLTIPLIKEI | -0.881
HMLPDLQESIDELLNIVDQRLNTSFEELVSGVNTTEKAIAFFLALLETIKWGFIKAEQTNNENKINIEKNY | -0.146
HMLPDPIYEAFMMASDLGIVVRNGPQYAYPDKETGEVLYKALGREKFLQLMKDNDGLLTSIETEIRSM | -1.61
HMLPKTVTLIDPVSGVAKTVTWVPALTLYSARRKAGLNRVPNTATIDRGGRELTGKRGSTLQPGDVVRW | -0.664
HMLPPLGDQELELLRFITESAPITVREAAESYGKDRGLARTTVLTMMERLRAKGYLTRSESGAANEYSP | -0.64
HMLPPVFLTIDANENVIVRKDGEPVQTLNKFELGAFARSQAENSAEQPVVLAADKSIKYEVVMEVI | 0.192
HMLPRLVLSPGTEVLATVMGKYENGMSLVKISSHLFAMDLPSRVQVGDSLRMTFLHQDARPTFALA | -1.11
HMLPSDLDEGNRRRQLIEGAARLFRAKGFDGTSTRDIAAAAGMRSGSPFYHFDSKNALLYVVVQEGM | -0.0127
HMLPSWLPTDAWEAFLEARVAMKARPTERAKGLLLGELSKLVSQGQDARAVLEQSVQRGWRGLFPVK | -1.76
HMLPSWPGVSEFEVARLLRRGRARGSLTLDEVIDVVRDAELTSELIAGIRSSLRAEGIDFEET | -0.731
HMLPTLSLSVKIYKGEGDIALDLEEMVKAFDQLNFGSYPFSEKGVHGTNIVIRGNDKKHMEEAEDKVRSLT | -0.438
HMLPVDALFAQHPALIVTLGQTEKLKHGAAIRDWHFADGTYRVYSETGEFLLLGTVKGQILTTVKSFFE | -2.24
HMLQARKFTHIQGYEFEAEFLRTNGEFVELQDPQGRKKWFPISNFIQDDKDFIKEQAGNLSS | -0.309
HMLQEFTLELATAVVQEFRDQPGALINALHKLQETFGYVDEAAMPVLARLFNLSRAEVHGVASFYHDFRRS | -1.67
HMLQEHVLEIRHPSWNDAFRIIGHDGWRTQTGAHAAILSYDEEELNIKWDSWGYERFIRDEKGIFRLAA | -0.11
HMLQESDPEALRGIVKSVLVDHAAVAEEYRAGKQSVLQFLVGQGMKASKGAGNPGLIRDLMLEEL | -0.237
HMLQLSDAISRVESFLQGQNRNLAFSIDENTERSVVTVLDSDTGDVIRQIPSEELLVLAKRIQELQQD | -0.0104
HMLQMSDSSALEAILDEVLGSEMGQKALSDIEAGNMKAMGFIIGQSMKLSKGQANPQIINKLLQQRLK | -0.326
HMLQNLGFKPDLEIRHFPGIVLPDIHRSKKTISLLYTLLAGDIKKLPENEINYKDSKIISSYLWTLLRYH | 0.103
HMLQSGSDYLIEQVRMYTATGQREYMDNYFEELNTTRRRENALEYFAEHYGDNDAFTLLKSAMTTSQN | -0.258
